# Measured values: doi:10.1101/2023.12.18.572191, “Broadly neutralizing antibody induction by non-stabilized SARS-CoV-2 Spike mRNA vaccination in nonhuman primates” (bioRxiv, 2023)
# B1: DH1338 antigen-binding fragment (Fab) (Fab, V domains shown)
# VH: QLQLQESGPGLVKPSETLSLTCAVSGGSISRKNWSWIRQPPGKGLGWIGRISGSGGSTDYNPSLKSRVTISTDTSKNQFSLKLSSVTAADTAVYYCARVAYYEDDYGYYYTEGAFDFWGQGLRVTVSS
# VL: EIVMTQSPATLSLSPGERATLSCRTSQSVSSYVAWYQQKPEQTPRLLIYDASSRATGIPDRFSGGGSGTDFTLTISSLEPEDFAVYYCQQYSNWPWTFGQGTKVEIK
# notes: also called DH1338 Fab
# Target: T1, SARS-CoV-2 S HexaPro Protein (SARS-CoV-2, Wuhan-Hu-1, stabilised)
# T1 construct: also called Hexapro spike; SARS-CoV-2 spike ectodomain
# Experiment: cryo-EM structure
# Settings: both partners purified
binder,measurement,value
B1,stoichiometry N,3
